The text below walks through data of publication PMC3266974 (Journal of Medicinal Chemistry, 2012).

This assay addresses T1, bovine pancreas CPA (Bos taurus, UniProt P00730).
T1 sequence (P00730 111-419): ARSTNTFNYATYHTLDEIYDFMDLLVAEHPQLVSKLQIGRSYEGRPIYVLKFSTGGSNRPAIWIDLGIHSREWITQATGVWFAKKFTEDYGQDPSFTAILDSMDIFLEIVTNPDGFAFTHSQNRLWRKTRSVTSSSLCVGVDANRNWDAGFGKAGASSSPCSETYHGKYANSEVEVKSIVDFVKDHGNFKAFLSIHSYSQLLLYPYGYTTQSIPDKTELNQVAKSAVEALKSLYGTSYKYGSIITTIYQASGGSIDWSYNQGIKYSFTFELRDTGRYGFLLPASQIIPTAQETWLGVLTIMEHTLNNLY
As to the kind of experiment: Inhibition of CPA, colorimetric substrate N-. The assay is classed as biochemical. The settings on record: tested in duplicate, na = not active at 30 μM.

Consider “Peptide 6: linear version of namalide (IFKF; not fully specified; Linear (uncyclized) namalide)”, for which the IC50 (as a rule, the concentration that gives 50% inhibition) was 4.5 ± 0.9 µM.
